Source: US11066455B2, “Tmem100 peptides and variants thereof and their use in treating or preventing diseases or conditions” (The Johns Hopkins University, priority 2014, dated 2021)

Experiments:
Format in all cases: cell-based
[1] = system: TRPA1-V1 complex; assay: FRET with TIRF microscopy of TRPV1-CFP and TRPA1-YFP in COS-7 cells; details: compared to cells expressing only TRPA1-V1
Excerpt: Expression vectors of pEYFP-TRPA1 (YFP on C-terminal part), pECFP-TRPV1 (CFP on C-terminal part), and pEYFP-N1 were transfected into COS-7 cells with FuGENE HD (Promega E2311), as previously described (Staruschenko et al., 2010). COS-7 cells were chosen since they have flat morphology and thus suitable for TIRF-FRET analysis. Moreover, previously it has been shown that CHO and COS cells express TRPA1 and TRPV1 to the same level (Staruschenko et al., 2010). Data from fixed cells were collected in separate facilities at University of Texas Health Science Center, San Antonio, and the Johns Hopkins University, respectively. […] Briefly, two days after transfection, the cells were fixed for 15 min with 4% paraformaldehyde in PBS and then imaged at the room temperature using total internal reflection fluorescence (TIRF) (also called evanescent-field) microscopy on an inverted Nikon Eclipse TE200U microscope equipped with a plain Apo TIRF 60× oil-immersion, high-resolution (1.45 NA) objective. […] Fluorescence images were collected and processed with a 16-bit, cooled charge-coupled device camera (Cascade 512F; Roper Scientific Inc.) interfaced to a PC running Metamorph software.
Each cell was photobleached by argon-ion laser (514 nm) at full power for 2 min. […] All images were analyzed in ImageJ. […]

[2] = system: TRPV1; assay: Cell-attached single-channel recording in CHO cells, CAP-induced activity (NPo); details: Vh=-60 mV
Description: (§1) Recordings were made in cell-attached single-channel or whole-cell voltage clamp configurations at 22-24° C. from the somata of small-to-medium mouse DRG neurons (15-35 pF) or CHO cells. For whole-cell configuration, holding potential (Vh) is −60 mV. Data were acquired and analyzed using an Axopatch 200B amplifier and pCLAMP9.0 software (Molecular Devices, Sunnyvale, Calif.). Borosilicate pipettes (Sutter, Novato, Calif.) were pulled and polished to resistances of 3-5 MΩ (in whole-cell and single-channel pipette solutions). Access resistance (Rs) was compensated (40-80%) when appropriate up to the value 7-10 MΩ for whole-cell configuration. Whole-cell recording data were filtered at 0.5 kHz and sampled at 2 kHz. Single-channels currents were filtered with an 8-pole, low pass Bessel filter at 0.1 kHz and sampled at 0.5 kHz, since dwelling time (τ) of the TRPA1 and TRPV1 single-currents were >0.5 sec. Whole-cell recorded data were rejected when Rs changed >20% during recording, leak currents were >100 pA, or input resistance was <200 MΩ.
(§2) Single-channel unitary current (i) was determined from the best-fit Gaussian distribution of amplitude histograms. Single-channel activity was analyzed as NPo=I/i, where I is the mean total current in a patch and i is unitary current at this voltage. For single channel slope conductances, linear fitting was used separately for positive and negative holding potentials. The slope conductances presented in figures were determined from fitting negative hold potentials (from −60 to 0 mV). The single-channel recording data were analyzed with Clampfit 9 software. This has an “event detection analysis” function that analyzes current traces and determines the number of channels in the patch (N), how many sub-conductances are present, and what the main conductance is. In order to increase the accuracy of the Po measurement, only patches containing fewer than 3 channels were used. For patches containing both TRPA1 and TRPV1, only those with equal numbers of TRPA1 and TRPV1 were used. This was monitored in each recording by applying MO and then CAP.
(§3) Standard external solution (SES) for whole-cell patch recording contained (in mM): 140 NaCl, 5 KCl, 2 CaCl2, 1 MgCl2, 10 D-glucose and 10 HEPES, pH 7.4. Vehicle, which is 0.01% DMSO, was added to external solutions. The bath solution for single-channel recording (SES-SCh) of TRP currents consisted of (in mM): 100 K-gluconate, 4 KCl, 1 MgCl2, 1 EGTA, 10 D-glucose and 10 Hepes (pH 7.3). The standard pipette solution (SIS) for the whole-cell configurations contained (in mM): 140 KCl, 1 MgCl2, 1 CaCl2, 10 EGTA, 10 D-glucose, 10 HEPES, pH 7.3. […] The baseline activities of the cells were recorded for 1-2 min prior drug applications. […]

[3] = system: TRPA1; assay: Cell-attached single-channel recording in CHO cells, MO-induced activity (NPo); details: Vh=-60 mV; co-expressed with TRPA1 only (1:4) in CHO cells
Description: as §1, §2, §3

[4] = system: T1, TRPA1; assay: as above; details: Vh=-60 mV; co-expressed with TRPA1+TRPV1 (1:1:4) in CHO cells
T1 construct: MO (10 μM)-evoked Ca2+ influx; other: TRPA1+TRPV1+Tmem100-3Q (1:1:4) CHO cells; MO (10 μM)-gated whole-cell current density; other: Vh=-60 mV; TRPA1+TRPV1+Tmem100-3Q (1:1:4) CHO cells; MO (10 μM)-induced single-channel activity (NPo); co-expressed with TRPA1+TRPV1 (1:1:4) in CHO cells
Description: as §1, §2, §3

[5] = co-expressed with TRPA1+TRPV1 (1:1:4) in CHO cells
[6] = co-expressed with TRPV1 only (1:4) in CHO cells

B1: Tmem100-3Q mutant (full-length, mouse) (protein)
chain: MTEESTKENLGAPKSPTPVTMEKNPKREVVVTTGPLVSEVQLMAATGGAELSCYRCIIPFAVVVFITGIVVTAVAYSFNSHGSIISIFGLVLLSSGLFLLASSALCWKVRQRNKKVQQQESQTALVVNQRCLFA
- enhancement of the TRPA1-TRPV1 interaction (FRET efficiency) [1]: 43%
- CAP (100 nM)-induced single-channel activity (NPo) [2, 5]: 1.08±0.17
- CAP (100 nM)-induced single-channel activity (NPo) [2, 6]: 0.73±0.12
- MO (10 μM)-induced single-channel activity (NPo) [3]: 1.05±0.14
- MO (10 μM)-induced single-channel activity (NPo) [4]: 0.16±0.06

B2: Tmem100: 134-amino acid two-transmembrane protein, regulator of TRPA1 (SEQ ID NO: 1/2), expressed in cells (protein, listed as Homo sapiens, listed as Mus musculus)
chain 1: MTEEPIKEILGAPKAHMAATMEKSPKSEVVITTVPLVSEIQLMAATGGTELSCYRCIIPFAVVVFIAGIVVTAVAYSFNSHGSIISIFGLVVLSSGLFLLASSALCWKVRQRSKKAKRRESQTALVANQRSLFA
chain 2: MTEESTKENLGAPKSPTPVTMEKNPKREVVVTTGPLVSEVQLMAATGGAELSCYRCIIPFAVVVFITGIVVTAVAYSFNSHGSIISIFGLVLLSSGLFLLASSALCWKVRQRNKKVKRRESQTALVVNQRCLFA
- decrease of TRPA1-V1 FRET efficiency [1]: 34%
- CAP (100 nM)-induced single-channel activity (NPo) [2, 5]: 0.82±0.14
- CAP (100 nM)-induced single-channel activity (NPo) [2, 6]: 0.45±0.1
- MO (10 μM)-induced single-channel activity (NPo) [3]: 0.64±0.18
- MO (10 μM)-induced single-channel activity (NPo) [4]: 1.05±0.14
